Test results: patent US20060104978

How the values were obtained:
[1] = target: full-length PDGF-C expressed in transfected COS-1 cells (latent PDGF-CC), Q9NRA1
[2] = target: full-length PDGF-D expressed in transfected COS-1 cells (latent PDGF-DD), Q9GZP0
[3] = target: PDGF-CC deletion mutant ΔN150, Q9NRA1
[4] = target: PDGF-CC deletion mutant ΔN230, Q9NRA1
[5] = target: PDGF-CC deletion mutant ΔN210, Q9NRA1
[6] = target: T1, CUBc-myc (CUB domain of PDGF-C, residues 1 to 165, with a human c-myc tag), Q9NRA1
T1 chain: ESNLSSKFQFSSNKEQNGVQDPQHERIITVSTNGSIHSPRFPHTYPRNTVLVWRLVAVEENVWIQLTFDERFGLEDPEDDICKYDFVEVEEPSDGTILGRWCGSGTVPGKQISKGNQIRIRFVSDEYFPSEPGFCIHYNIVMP

[7] = target: PDGF-CC deletion mutant ΔN170, Q9NRA1
[8] = target: T2, chimeric PDCUBPC (CUB region of PDGF-D, hinge/core region of PDGF-C), Q9GZP0
T2 chain: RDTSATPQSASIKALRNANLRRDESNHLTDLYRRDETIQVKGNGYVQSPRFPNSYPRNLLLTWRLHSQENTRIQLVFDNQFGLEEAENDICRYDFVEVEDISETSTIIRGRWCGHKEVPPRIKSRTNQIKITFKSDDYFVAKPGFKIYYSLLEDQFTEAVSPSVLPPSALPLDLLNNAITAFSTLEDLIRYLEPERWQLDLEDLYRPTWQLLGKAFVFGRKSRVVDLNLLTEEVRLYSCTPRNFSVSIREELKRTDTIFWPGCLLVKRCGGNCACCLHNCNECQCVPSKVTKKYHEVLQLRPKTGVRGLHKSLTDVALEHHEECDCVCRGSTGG

[9] = target: cleavage site mutant of mouse PDGF-C (-K-K-S-K- replaced by four alanines), Q8CI19
[10] = target: PDGF-CC deletion mutant ΔN190, Q9NRA1
[11] = target: recombinant His6-tagged latent (full-length) human PDGF-CC, Q9NRA1
[12] = target: recombinant His6-tagged latent (full-length) PDGF-DD, Q9GZP0
[13] = target: T3, endogenous latent PDGF-CC secreted by primary mouse fibroblasts, Q8CI19
T3 chain: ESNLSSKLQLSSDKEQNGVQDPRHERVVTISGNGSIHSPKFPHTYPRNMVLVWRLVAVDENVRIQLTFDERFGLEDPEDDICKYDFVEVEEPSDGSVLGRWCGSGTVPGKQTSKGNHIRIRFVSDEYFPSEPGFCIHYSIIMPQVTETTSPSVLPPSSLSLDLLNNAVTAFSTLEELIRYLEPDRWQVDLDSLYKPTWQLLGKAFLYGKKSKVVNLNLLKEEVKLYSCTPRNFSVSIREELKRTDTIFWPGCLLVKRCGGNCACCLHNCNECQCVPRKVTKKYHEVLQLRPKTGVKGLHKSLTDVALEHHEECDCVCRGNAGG

B1: human neurotrypsin (NT) expressed in transfected COS-1 cells (pSG5) (protein)
chain: FDSVLNDSLHHSHRHSPPAGPHYPYYLPTQQRPPRTRPPPPLPRFPRPPRALPAQRPHALQAGHTPRPHPWGCPAGEPWVSVTDFGAPCLRWAEVPPFLERSPPASWAQLRGQRHNFCRSPDGAGRPWCFYGDARGKVDWGYCDCRHGSVRLRGGKNEFEGTVEVYASGVWGTVCSSHWDDSDASVICHQLQLGGKGIAKQTPFSGLGLIPIYWSNVRCRGDEENILLCEKDIWQGGVCPQKMAAAVTCSFSHGPTFPIIRLAGGSSVHEGRVELYHAGQWGTVCDDQWDDADAEVICRQLGLSGIAKAWHQAYFGEGSGPVMLDEVRCTGNELSIEQCPKSSWGEHNCGHKEDAGVSCTPLTDGVIRLAGGKGSHEGRLEVYYRGQWGTVCDDGWTELNTYVVCRQLGFKYGKQASANHFEESTGPIWLDDVSCSGKETRFLQCSRRQWGRHDCSHREDVSIACYPGGEGHRLSLGFPVRLMDGENKKEGRVEVFINGQWGTICDDGWTDKDAAVICRQLGYKGPARARTMAYFGEGKGPIHVDNVKCTGNERSLADCIKQDIGRHNCRHSEDAGVICDYFGKKASGNSNKESLSSVCGLRLLHRRQKRIIGGKNSLRGGWPWQVSLRLKSSHGDGRLLCGATLLSSCWVLTAAHCFKRYGNSTRSYAVRVGDYHTLVPEEFEEEIGVQQIVIHREYRPDRSDYDIALVRLQGPEEQCARFSSHVLPACLPLWRERPQKTASNCYITGWGDTGRAYSRTLQQAAIPLLPKRFCEERYKGRFTGRMLCAGNLHEHKRVDSCQGDSGGPLMCERPGESWVVYGVTSWGYGCGVKDSPGVYTKVSAFVPWIKSVTKL
With B1 the “proteolytic cleavage in the cotransfection assay (SDS-PAGE, immunoblot)” value (“proteolytic cleavage … (SDS-PAGE, immunoblot)” for short) [1] was “neurotrypsin (NT) lacked proteolytic activity toward latent PDGF-CC” and the “proteolytic cleavage … (SDS-PAGE, immunoblot)” value [2] was “neither of the two enzymes was able to cleave and activate latent PDGF-DD”.

B2: full-length human tPA expressed in transfected COS-1 cells (pSG5) (protein)
chain: SYQVICRDEKTQMIYQQHQSWLRPVLRSNRVEYCWCNSGRAQCHSVPVKSCSEPRCFNGGTCQQALYFSDFVCQCPEGFAGKCCEIDTRATCYEDQGISYRGTWSTAESGAECTNWNSSALAQKPYSGRRPDAIRLGLGNHNYCRNPDRDSKPWCYVFKAGKYSSEFCSTPACSEGNSDCYFGNGSAYRGTHSLTESGASCLPWNSMILIGKVYTAQNPSAQALGLGKHNYCRNPDGDAKPWCHVLKNRRLTWEYCDVPSCSTCGLRQYSQPQFRIKGGLFADIASHPWQAAIFAKHRRSPGERFLCGGILISSCWILSAAHCFQERFPPHHLTVILGRTYRVVPGEEEQKFEVEKYIVHKEFDDDTYDNDIALLQLKSDSSRCAQESSVVRTVCLPPADLQLPDWTECELSGYGKHEALSPFYSERLKEAHVRLYPSSRCTSQHLLNRTVTDNMLCAGDTRSGGPQANLHDACQGDSGGPLVCLNDGRMTLVGIISWGLGCGQKDVPGVYTKVTNYLDWIRDNMRP
B2 was tested, and the “proteolytic cleavage in the cotransfection assay (immunoblot)” value (shortened to “proteolytic cleavage … (immunoblot)”) [3] was “neither chimeric PDCUBPC, nor the truncation mutants lacking the CUB domain, were efficiently cleaved”, the “proteolytic cleavage … (SDS-PAGE, immunoblot)” value [1] was “tPA released the growth factor domain of latent PDGFCC, and the fragment migrated as a 22 kDa species under reducing conditions” and the “proteolytic cleavage … (immunoblot)” value [4] was “neither chimeric PDCUBPC, nor the truncation mutants lacking the CUB domain, were efficiently cleaved”. The “proteolytic cleavage … (immunoblot)” value [5] was “neither chimeric PDCUBPC, nor the truncation mutants lacking the CUB domain, were efficiently cleaved”, the “proteolytic cleavage … (SDS-PAGE, immunoblot)” value [2] was “neither of the two enzymes was able to cleave and activate latent PDGF-DD” and the “cleavage of full-length PDGF-CC by tPA in the cotransfection assay (immunoblot)” value [6] was “the CUB domain efficiently competed for the interaction and processing of latent PDGF-CC by tPA”. The “proteolytic cleavage … (immunoblot)” value [7] was “neither chimeric PDCUBPC, nor the truncation mutants lacking the CUB domain, were efficiently cleaved”, the “proteolytic cleavage … (immunoblot)” value [8] was “neither chimeric PDCUBPC, nor the truncation mutants lacking the CUB domain, were efficiently cleaved” and the “proteolytic cleavage … (immunoblot)” value [9] was “the mutant was resistant to tPA-mediated cleavage”. For the same protein, the “proteolytic cleavage … (immunoblot)” value [10] was “neither chimeric PDCUBPC, nor the truncation mutants lacking the CUB domain, were efficiently cleaved”.

B3: tPA purified from human melanoma cells (T7776, Sigma) (protein)
chain: SYQVICRDEKTQMIYQQHQSWLRPVLRSNRVEYCWCNSGRAQCHSVPVKSCSEPRCFNGGTCQQALYFSDFVCQCPEGFAGKCCEIDTRATCYEDQGISYRGTWSTAESGAECTNWNSSALAQKPYSGRRPDAIRLGLGNHNYCRNPDRDSKPWCYVFKAGKYSSEFCSTPACSEGNSDCYFGNGSAYRGTHSLTESGASCLPWNSMILIGKVYTAQNPSAQALGLGKHNYCRNPDGDAKPWCHVLKNRRLTWEYCDVPSCSTCGLRQYSQPQFRIKGGLFADIASHPWQAAIFAKHRRSPGERFLCGGILISSCWILSAAHCFQERFPPHHLTVILGRTYRVVPGEEEQKFEVEKYIVHKEFDDDTYDNDIALLQLKSDSSRCAQESSVVRTVCLPPADLQLPDWTECELSGYGKHEALSPFYSERLKEAHVRLYPSSRCTSQHLLNRTVTDNMLCAGDTRSGGPQANLHDACQGDSGGPLVCLNDGRMTLVGIISWGLGCGQKDVPGVYTKVTNYLDWIRDNMRP
With B3 the “in vitro cleavage with purified tPA (SDS-PAGE, immunoblot)” value [11] was “PDGF-CC, but not PDGF-DD, is a substrate for tPA” and the “in vitro cleavage with purified tPA (SDS-PAGE, immunoblot)” value [12] was “PDGF-CC, but not PDGF-DD, is a substrate for tPA”.

B4: endogenous tPA of primary mouse fibroblasts (protein)
chain: SYRATCRDEPTQTTYQQHQSWLRPMLRSSRVEYCRCNSGLVQCHSVPVRSCSEPRCFNGGTCQQALYFSDFVCQCPDGFVGKRCDIDTRATCFEEQGITYRGTWSTAESGAECINWNSSVLSLKPYNARRPNAIKLGLGNHNYCRNPDRDLKPWCYVFKAGKYTTEFCSTPACPKGKSEDCYVGKGVTYRGTHSLTTSQASCLPWNSIVLMGKSYTAWRTNSQALGLGRHNYCRNPDGDARPWCHVMKDRKLTWEYCDMSPCSTCGLRQYKRPQFRIKGGLYTDITSHPWQAAIFVKNKRSPGERFLCGGVLISSCWVLSAAHCFLERFPPNHLKVVLGRTYRVVPGEEEQTFEIEKYIVHEEFDDDTYDNDIALLQLRSQSKQCAQESSSVGTACLPDPNLQLPDWTECELSGYGKHEASSPFFSDRLKEAHVRLYPSSRCTSQHLFNKTVTNNMLCAGDTRSGGNQDLHDACQGDSGGPLVCMINKQMTLTGIISWGLGCGQKDVPGVYTKVTNYLDWIHDNMKQ
B4 was tested, and the “processing of latent PDGF-CC in medium of tPA-deficient against wild-type fibroblasts (immunoblot)” value [13] was “the generation of double species migrating as 22-25 kDa was reduced to less than 10%”.
